Assay: soluble on expression in E. coli; label from the status in PepcDB or PDB records

Sequence | soluble on expression in E. coli
MNKKDFLDFLNQNILILDGATGTELQKRGMPGGVCPEMWVIENPDVIMDIQKDYINAGSNAVYTCTFGGNRIKLSEFGLGDKVVEINKKLAQLSRKAAGEKGLVAGDLAPTGRFVRPFGDMPFEEAVDVYKEQVKGLLEGGVDFFVIETMMDIQEARAALLAVKESCDLPVCVSMTFDESGRTLTGTDSVSALIILQSLGADVVGCNCSTGPQDMIKIIREMKPYAKVPLLAKPNAGLPKLIDGKTRFDMEPEEFGSYIKEFVEAGVNLLGGCCGTSPVYIEQIRKNIEGLKPIPPQPKEICAVASARKTVFVDANEPVVVVGERINPTGKKKLQEELRQGMTSLVRQFAVEQVEKGADILDVNVGMPGIDEKETMVKVVELLSSITDAPLCLDSSSPEVLEAALRIYPGRALINSISAEKVKIEKLLPIAAKYGAAFILLPLGDAGVPKSAGERCKIVEEVFNEASKWGYTKKDVIVDGLVMTVSADQEAAVETLKVIEWCTQSFGCGTIVGLSNVSFGMPERAWINSAFLAMAIGYGLTMAILNPSSDTLMSIKMASDVLKVKDRNSKKYIEHFAALKSDKPQVVEKKDTASPVEKVYDAVVKGDRENIRKYIDDALKDGTEPSIIVDKYLIPAITHVGDLYDRKEYFLPQLIQSAETMKEAFGILEPLLKKEPVDEKGNKVKVILATVKGDIHDIGKNIVGLMLRNYGFEVYDLGKDVSAEEIVKKAKETNAPIIGLSALMTTTMLEMREVVSLVRQEGLNAKIMIGGAVVNADYAKEIGADGYSEDAYGAVKLASKLAGI | soluble
AIANDEYYLELSENPVQFENASSVNNVFFDEANKQVFAVRSGGATGVVVKGPDDKSSVAFRMDDKGEVKCIKFSLGNKILAVQRTTKSVDFINFIPDYPHLEFSHECKTKNASILGFCWTNWNEIVFVTDQGIEFYQVLPDKRTLKLLKSQSINVNWYIYCPETAVLLLSTTVQGNVLQPFAFKTATMSKMSKFEIELPAVPKPAKLSLSERDIAVATIYDQLYVMYLKHHSRTTNSPGAEVVLYHLPREGTCKRTNVLRLNTTGKFAINVVDNLVVVHHQTTQTSLIYDIKLRELDGNVNVHQPVLPARSINPFKIPLTGPAAAPSQAPLPCELYSSSWSVFQPDIIISASEGFLWYLQVKLQPTLNLLQDKGKLMDFLLRRRDCKMVILSVCSQMLIGGDKGNLSVVATVFDKLNQVYKEYLDAEQAYTAVNEQNSCFTLYLANTYNNM | soluble
MSPNCETPTSSLSTSLRFVPSLACIAEEEPKVIGIRKITVPGSSKPFQVQIPLYDLNIYAPEPPKQPLPDSYQRLLAEMDQYIGGHQNSEMYKEMAKNLRHKVAVEQAENNRLSKSNFTNRDWYWYAEQTRAFVDEPVINSTSKTQESNISECLEETSSSAKSTVMKDEDLFDLSADF | not soluble
MEALGKTILASDDINSIKKNLAKHIVHLNEENEKYRNEIKLLKKNKDINNQILFTLNKTEISSDMIDSLFMQTKNVIIQVTNKKY | not soluble
MSILHMPLKIKDITIKNRIMMSPMCMYSASTDGMPNDWHIVHYATRAIGGVGLIMQEATAVESRGRITDHDLGIWNDEQVKELKKIVDICKANGAVMGIQLAHAGRKCNISYEDVVGPSPIKAGDRYKLPRELSVEEIKSIVKAFGEAAKRANLAGYDVVEIHAAHGYLIHEFLSPLSNKRKDEYGNSIENRARFLIEVIDEVRKNWPENKPIFVRVSADDYMEGGINIDMMVEYINMIKDKVDLIDVSSGGLLNVDINLYPGYQVKYAETIKKRCNIKTSAVGLITTQELAEEILSNERADLVALGRELLRNPYWVLHTYTSKEDWPKQYERAFKKHHHHHH | soluble
SNANRDSLFNDPNAPVLGNPEGDVTVVEFFDYNCPYCRRAMAEVQGLVDADPNVRLVYREWPILGEGSDFAARAALAARQQGKYEAFHWALMGMSGKANETGVLRIAREVGLDTEQLQRDMEAPEVTAHIAQSMALAQKLGFNGTPSFVVEDALVPGFVEQSQLQDAVDRARKAA | soluble
MKNRIIAAGVIAASILSYSSSSFAQTKTFPDVQTGHWAEDSINYLAEKGAVTGNEKGMFEPGKEITRAEAATMMAKILNLPIDKNAKPSYADSQKHWATPIIAAVEKAGVVKGTGNGFEPDGKIDRVSMASLLVEAYKLESKVNGTPATKFKDLETLNWGKEKANILVELGISVGTGDKWEPKKILTKAEAAQFIKKADSLKVGNPLVEKVVIIDPGHGGFDPGNPGQGVEESKIVFDTSLRLQKLLEKNTPLKALLTREENGNPGSNKNESLANRVKFGQENNADIFVSIHANSSEKHDGHGTETYYYKKSKRGEETQIEKDSEVLAKKIQNRVVEALHTRDRKIKDDHSLYVVNNNTVPAVLTELAFIDNDIDNGKLATESGRQIAAEAVYAGILDYYEWKGFDVSKYRLAK | not soluble
MACFSSLSTGVLDMYDLIIVGGGPSGASAGRVAGKAGISTLLIEKENFPRYKPCGGALSPYALSCLDFKLPEYLIEKDISRIRVHFRELCTEMQKDYSIALLVSRKAFDNFLLDKARETGIDIHSGEKVLDCEEGEECVEVRTSQNTYLAKFVLIAEGSEGVLKYSVRKRKDRRTEYDLALVSEIPERDKVIRKRFPNAIDMHFGIASGGYGWIFPHSEHYSVGIVGTAEHLKHPKAVMQDFLQANGFSGDFQVHSHIIPVGGIKRKTISSRILLSGDAAGFVDAFIGEGISYAIRSGQLAAENVAEIVLYNRKLSDLKEYETSCRKEFGNFLSSSLKLEKAMHRFPETSFRLALSRKEIIDKYLEEVVINRSHKDYVRWLLLNFSLSEPASKIKSIKDKNQLEHHHHHH | not soluble
EIEKGGCGDPGIPAYGKRTGSSFLHGDTLTFECPAAFELVGERVITCQQNNQWSGNKPSC | soluble
MGSDKIHHHHHHMKRIRNISVVGMGAVGCAYGRKLYKLNPNNFKIIADDKRKEKLTKNGFLINGEKYDFKCVSPNENLGKDDLIIIAVKYNQLEEAIEEIRNYVGENTIILSFLNGIKSEEEIGKVYGMDKILYSYCVLESTRKGSEVYVSDGYKIVFGQKESDNKYEKIKAVRELFDDAEIDYEIPVDIIHSMWSKFMFNVGINPVSAILKANYGMLQKNKYARETMVSAMMEVINISQKASVNLKIEEINHWLAVLDECELHGKTSMCQDILMGRKTEIDMLSGEVCALGEKYGVDTPVNRTLFNMVKSIE | not soluble
MAEKSYTRFVINGKEQELKFCLQALRLLDENGGPMQFVSQTMQGGITNFTDVVYYALIHTNEGITYEAVQKEIENMFNAEKLDLDEILKYNKAVVLNSFFFQKTVKKLLGTMTAEQQKSFENLYA | not soluble
MSLKYVDEFRNGDYAKTLVRLIQKLTKKKINIMEICGSHTMAIFRYGIKDILPSNIRLISGPGCPVCVTSQGYIDTALELSLSREVIIATFGDMIRVPGTKTSLMKRKAEGADIKIVYSPMDALTLAENNPLKKVVFLSVGFETTTPITAITILEAKKRGVKNIFFLTSNKMVPPVMRTLVEDKELNITGFLLPGNVSAIIGKKPYEFLSSEYNVSGVVTGFEPLDILKGLKVLIDIINNNASVIVNEYKRVVRDEGNVTALRYIKEVFEVTDSTWRGIGNIEKSGYKINTEYEQFDAVKQFNINYKECDSSSECRCGDILKGKITPIECSLFKKACTPDHPVGSCMVSYEGVCAAYYKFLNTEGHHHHHH | not soluble
MGSDKIHHHHHHMGNFLYGIDFGTSNSVLSIFDEDKNEIIETLSVPSILYFPDAYDPALPLQYYVGEDAIRYYISDGMKGRFMKSIKRVLPRTNFVETRIHTKSFNAAGLITLILKELKTKADAIIGMDCKKAIIGRPVYFDDDNTVNDAVAQKRLLQAAQQAGLSDIRFQYEPIGAAFAYERTISKKEHVLVADLGGGTTDFTFIELDPHKNNRKDRRSDIIATGGIYIGGDSFDSAFMWDKGTPYFGRGVTYESMPGKMVDVPPSFFSNICSWEKMNFFNGVKVQNDLRQYYNYSKQNDKLKNLITLTENNLGYSIFQSIEKTKVDLSIQSSSSFSYHKADIHIDEPIDLTAYNRIIQRDVTKINNYLESFLSKHAIVPESIDSLFLTGGTSMVQAIQALFKEKFPHIAITSGDNFISVSKGLAYSGYLFD | not soluble

From the DeepSol protein solubility set
